Patent publication US20220251194A1 (Merck Sharp & Dohme, published 2022)

How the values were obtained:
[1] = target: T1, recombinant human or cyno PD-1 (immobilized onto CM5 chip, Example 1) (human or cyno ( which was …, UniProt Q15116 25-167, limits assumed)); test: SPR (Biacore T200), PD-1 immobilized on CM5 chip, Fab as analyte
T1 construct: also called antigen
Description: Immobilization of recombinant human or cyno PD-1 onto CM5 chip: A CM5 sensor chip was activated in FC2 by 7-min. injection (10 μl/min.) of freshly prepared 1:1 50 mM NHS: 200 mM EDC. PD-1 at a concentration of 0.2 μg/ml in 10 mM sodium acetate buffer pH 5.0 was injected onto the activated chip at 5 μl/min. (HBS-EP running buffer: 10 mM HEPES, 150 mM NaCl, 3.4 mM EDTA, 0.005% surfactant P20, pH 7.4) for 120 seconds. The remaining active coupling sites were blocked with 7 min. injection of 1M ethanolamine at 10 μl/min.
Binding kinetics measurement: Various concentrations of the Fabs were injected with a flow rate of 30 μl/min for 180 seconds(s) during the association phase. The dissociation of bound antibody was monitored by flowing HBS-EP buffer over the chip surface for 600 seconds. At the end of each cycle, the sensor surfaces were regenerated by injecting regeneration buffer (10 mM glycine buffer with pH 1.7) for 180 seconds. After sensograms were corrected for signals from a reference flow, kinetics were calculated with BIACORE T 200 evaluation software ver.1.0 (Biacore, GE, USA).

[2] = target: T2, polyhistidine-tagged human PD-1 (hPD1-His, 98AFK) (human, UniProt Q15116 25-167, limits assumed); test: SPR (Biacore T200), mAb captured on anti-Fc chip; reference Mouse 08A
T2 construct: also called human PD1-His; Human PD-1-His
Description: (§1) A surface plasmon resonance (SPR)-based assay utilizing capture mode was used to determine the binding kinetics and affinities of anti-PD-1 antibodies against polyhistidine-tagged human PD-1 (hPD1-His, 98AFK). Following manufacture instructions, a series S sensor chip CM5 (GE Healthcare, BR100530) was activated using an amine-coupling kit (GE Healthcare, BR100050). Either human capture kit (anti-human Fc, 25 μg/mL, GE Healthcare, BR100839) or mouse capture kit (anti-mouse Fc, 30 μg/mL, GE Healthcare, BR100838) antibody diluted in the supplied pH 5.0, 10 mM sodium acetate buffer was immobilized onto the activated surface for 7 minutes. After immobilization, surfaces were deactivated with 1M ethanolamine/HCl (pH 8.5) for 7 minutes.
(§2) Binding kinetics were measured on a biacore T200 in HBS-EP+ (0.01 M HEPES pH 7.4, 0.15 M NaCl, 3 mM EDTA, 0.05% v/v Surfactant P20) running buffer at 25° C. Antibodies were captured either on mouse or human Fc capture surfaces at 10 μL/min flow rate. Antibodies were captured on flow cells 2, 3 and 4. Flow cell 1 was used as a reference with no antibody captured. A 6-point, 2-fold serial dilutions of the analyte 98AFK (hPD1-His), starting at 20 nM, were prepared in the running buffer (HBS-EP+). Two buffer blanks were included for double referencing. Titration series were injected for 3 minutes at 50 μl/min followed by 600 seconds of dissociation. After each cycle, surfaces were regenerated with a 30 second injection of 3M MgCl₂ at […] on the anti-human Fc chip or 180 seconds of 10 mM Glycine pH 1.7 at 10 μl/min on the anti-mouse Fc chip.
(§3) Sensorgram processing and data analysis were performed with Biacore T200 Evaluation Software Version 2.0.4 (GE Healthcare). […] Processed curves were globally fitted to a 1:1 binding model to determine the association rate constant, kₒₙ (M⁻¹s⁻¹, where “M” equals molar and “s” equals seconds) and the dissociation rate constant, koff (s⁻¹). These rate constants were used to calculate the equilibrium dissociation constant, KD (M)=koff/kₒₙ.

[3] = target: T2, polyhistidine-tagged human PD-1 …; test: SPR (Biacore T200), mAb captured on anti-Fc chip, hPD1-His as analyte
Description: as §1, §2, §3

T1 sequence (Q15116 25-167 limits assumed): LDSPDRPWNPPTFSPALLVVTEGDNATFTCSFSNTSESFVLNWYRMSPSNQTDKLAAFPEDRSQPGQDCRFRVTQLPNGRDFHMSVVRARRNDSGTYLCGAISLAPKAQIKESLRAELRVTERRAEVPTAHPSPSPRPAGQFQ
T2 sequence (Q15116 25-167 limits assumed): as above

Row | Binder | Kd [1] | KD (REF)/KD [2] | Kd [3]
1 | Fab 098 (Fab, V domains shown, also called Fab98) VH: EVQLVQSGAEVKKPGASVKVSCKASGYTFTSYYLYWVRQAPGQGLEWIGGVNPSNGGTNFNEKFKSRVTLTVDTSISTAYMELSRLRSDDTAVYYCTRRLSHYDGGFDYWGQGTTVTVSS VL: DIVMTQTPLSLSVTPGQPASISCRASKSVSTSGFSYLHWYLQKPGQPPQLLIFLGKFRESGVPDRFSGSGSGTDFTLKISRVEAEDVGVYYCQHSWELPLTFGQGTKLEIKR | 0.031 nM | – | –
2 | Fab 099 (Fab, V domains shown) VH: EVQLVQSGAEVKKPGASVKVSCKASGYTFTSYYLYWVRQAPGQGLEWIGGVNPSNGGTNFNEKFKSRVTLTVDTSISTAYMELSRLRSDDTAVYYCTRRLSHYDGGFDYWGQGTTVTVSS VL: DIVMTQTPLSLSVTPGQPASISCRASKSVSTSGFSYLHWYLQKPGQPPQLLIFLGTHRASGVPDRFSGSGSGTDFTLKISRVEAEDVGVYYCQHSWELPLTFGQGTKLEIKR | 0.034 nM | – | –
3 | Fab 100 (Fab, V domains shown) VH: EVQLVQSGAEVKKPGASVKVSCKASGYTFTSYYLYWVRQAPGQGLEWIGGVNPSNGGTNFNEKFKSRVTLTVDTSISTAYMELSRLRSDDTAVYYCTRRLSHYDGGFDYWGQGTTVTVSS VL: DIVMTQTPLSLSVTPGQPASISCRASKSVSTSGFSYLHWYLQKPGQPPQLLIFLSKYRSSGVPDRFSGSGSGTDFTLKISRVEAEDVGVYYCSQAYHLPLTFGQGTKLEIKR | 0.024 nM | – | –
4 | Fab 101 (Fab, V domains shown) VH: EVQLVQSGAEVKKPGASVKVSCKASGYTFTSYYLYWVRQAPGQGLEWIGGVNPSNGGTNFNEKFKSRVTLTVDTSISTAYMELSRLRSDDTAVYYCTRRLSHYDGGFDYWGQGTTVTVSS VL: DIVMTQTPLSLSVTPGQPASISCRASKSVSTSGFSYLHWYLQKPGQPPQLLIFLGKYGASGVPDRFSGSGSGTDFTLKISRVEAEDVGVYYCAQATQLPLTFGQGTKLEIKR | 0.029 nM | – | –
5 | Fab 102 (Fab, V domains shown) VH: EVQLVQSGAEVKKPGASVKVSCKASGYTFTSYYLYWVRQAPGQGLEWIGGVNPSNGGTNFNEKFKSRVTLTVDTSISTAYMELSRLRSDDTAVYYCTRRLSHYDGGFDYWGQGTTVTVSS VL: DIVMTQTPLSLSVTPGQPASISCRASKSVSTSGFSYLHWYLQKPGQPPQLLIFLGHFASSGVPDRFSGSGSGTDFTLKISRVEAEDVGVYYCQHSWELPLTFGQGTKLEIKR | 0.042 nM | – | –
6 | Fab 103 (Fab, V domains shown) VH: EVQLVQSGAEVKKPGASVKVSCKASGYTFTSYYLYWVRQAPGQGLEWIGGVNPSNGGTNFNEKFKSRVTLTVDTSISTAYMELSRLRSDDTAVYYCTRRLSHYDGGFDYWGQGTTVTVSS VL: DIVMTQTPLSLSVTPGQPASISCRASKSVSTSGFSYLHWYLQKPGQPPQLLIFLGRYLQSGVPDRFSGSGSGTDFTLKISRVEAEDVGVYYCQHSWELPLTFGQGTKLEIKR | 0.028 nM | – | –
7 | Fab 104 (Fab, V domains shown) VH: EVQLVQSGAEVKKPGASVKVSCKASGYTFTSYYLYWVRQAPGQGLEWIGGVNPSNGGTNFNEKFKSRVTLTVDTSISTAYMELSRLRSDDTAVYYCTRRLSHYDGGFDYWGQGTTVTVSS VL: DIVMTQTPLSLSVTPGQPASISCRASKSVSTSGFSYLHWYLQKPGQPPQLLIFLGTHSVSGVPDRFSGSGSGTDFTLKISRVEAEDVGVYYCQHSWELPLTFGQGTKLEIKR | 0.052 nM | – | –
8 | Mouse 09A (antibody, mouse IgG1, kappa, V domains shown, Mouse IgG1 / kappa; also called 03AFN; Mouse x [PD-1_H] mAb (clone 09A) IgG1 / Kappa) VH: QVQLQQPGAELVKPGTSVKLSCKASGYTFTNYYMYWVKQRPGQGLEWIGGINPSNGGTNFNEKFKNKATLTVDSSSSTTYMQLSSLTSEDSAVYYCTRRDYRFDMGFDYWGQGTTLTVSS VL: DIVLTQSPASLAVSLGQRAAISCRASKGVSTSGYSYLHWYQQKPGQSPKLLIYLASYLESGVPARFSGSGSGTDFTLNIHPVEEEDAATYYCQHSRDLPLTFGTGTKLELKR | – | 0.5 | 0.46 nM
9 | Mouse 08A (REF) (antibody, mouse IgG1, kappa, V domains shown, Mouse IgG1 / kappa; also called 09AFF; parental mouse 08A antibody) VH: QVQLQQPGAELVKPGASVKLSCKASGYTFTSYYLYWMKQRPGQGLEWIGGVNPSNGGTNFSEKFKSKATLTVDKSSSTAYMQLSSLTSEDSAVYYCTRRDSNYDGGFDYWGQGTTLTVSS VL: DIVLTQSPTSLAVSLGQRATISCRASKSVSTSGFSYLHWYQQKPGQPPKLLIFLASNLESGVPARFSGSGSGTDFTLNIHPVEEEDAATYYCQHSWELPLTFGAGTKLELKR | – | 1 | 0.24 nM
10 | Mouse 08A N59A (antibody, mouse IgG1, kappa, V domains shown, Mouse IgG1 / kappa; also called 80AFH; Mouse x [PD-1_H] mAb (Clone 1.08 N59A) IgG1 / Kappa) VH: QVQLQQPGAELVKPGASVKLSCKASGYTFTSYYLYWMKQRPGQGLEWIGGVNPSNGGTAFSEKFKSKATLTVDKSSSTAYMQLSSLTSEDSAVYYCTRRDSNYDGGFDYWGQGTTLTVSS VL: DIVLTQSPTSLAVSLGQRATISCRASKSVSTSGFSYLHWYQQKPGQPPKLLIFLASNLESGVPARFSGSGSGTDFTLNIHPVEEEDAATYYCQHSWELPLTFGAGTKLELKR | – | 0.4 | 0.59 nM
11 | Mouse 08A N59E (antibody, mouse IgG1, kappa, V domains shown, Mouse IgG1 / kappa; also called 39AFL; Mouse x [PD-1_H] mAb (Clone 1.08 N59E) IgG1 / Kappa) VH: QVQLQQPGAELVKPGASVKLSCKASGYTFTSYYLYWMKQRPGQGLEWIGGVNPSNGGTEFSEKFKSKATLTVDKSSSTAYMQLSSLTSEDSAVYYCTRRDSNYDGGFDYWGQGTTLTVSS VL: DIVLTQSPTSLAVSLGQRATISCRASKSVSTSGFSYLHWYQQKPGQPPKLLIFLASNLESGVPARFSGSGSGTDFTLNIHPVEEEDAATYYCQHSWELPLTFGAGTKLELKR | – | 0.03 | 5.9 nM
12 | Mouse 08A N59Q (antibody, mouse IgG1, kappa, V domains shown, Mouse IgG1 / kappa; also called 38AFL; Mouse x [PD-1_H] mAb (Clone 1.08 N59Q) IgG1 / Kappa) VH: QVQLQQPGAELVKPGASVKLSCKASGYTFTSYYLYWMKQRPGQGLEWIGGVNPSNGGTQFSEKFKSKATLTVDKSSSTAYMQLSSLTSEDSAVYYCTRRDSNYDGGFDYWGQGTTLTVSS VL: DIVLTQSPTSLAVSLGQRATISCRASKSVSTSGFSYLHWYQQKPGQPPKLLIFLASNLESGVPARFSGSGSGTDFTLNIHPVEEEDAATYYCQHSWELPLTFGAGTKLELKR | – | 0.04 | 9.6 nM
13 | Humanized 08A IgG4 (antibody, V domains shown, IgG4 S228P / kappa; also called 73AGG; Humanized x [PD-1_H] mAb (08A/HuPD1A-11 S228P) IgG4 / Kappa) VH: EVQLVQSGAEVKKPGASVKVSCKASGYTFTSYYLYWVRQAPGQGLEWIGGVNPSNGGTNFSEKFKSRVTLTVDTSISTAYMELSRLRSDDTAVYYCTRRDSNYDGGFDYWGQGTTVTVSS VL: DIVMTQTPLSLSVTPGQPASISCRASKSVSTSGFSYLHWYLQKPGQPPQLLIFLASNLESGVPDRFSGSGSGTDFTLKISRVEAEDVGVYYCQHSWELPLTFGQGTKLEIKR | – | 1.7 | 0.14 nM
14 | Humanized 08A IgG4 S61N (lot 67AGG) (antibody, IgG4 S228P / kappa; Differs from lot 98AIO by an HFR4 mutation; also called Humanized x [PD-1_H] mAb (08A/HuPD1A-11 S61N WT) S228P IgG4 / Kappa, with HFR4 mutation) heavy: not shown light: DIVMTQTPLSLSVTPGQPASISCRASKSVSTSGFSYLHWYLQKPGQPPQLLIFLASNLESGVPDRFSGSGSGTDFTLKISRVEAEDVGVYYCQHSWELPLTFGQGTKLEIKRTVAAPSVFIFPPSDEQLKSGTASVVCLLNNFYPREAKVQWKVDNALQSGNSQESVTEQDSKDSTYSLSSTLTLSKADYEKHKVYACEVTHQGLSSPVTKSFNRGEC | – | 5.2 | 0.045 nM
15 | Humanized 08A IgG4 S61N N55E (antibody, V domains shown, IgG4 S228P / kappa; also called 50AQK; Humanized x [PD-1_H] mAb (08A/HuPD1A-11 N55E S228P) IgG4 / Kappa) VH: EVQLVQSGAEVKKPGASVKVSCKASGYTFTSYYLYWVRQAPGQGLEWIGGVNPSEGGTNFNEKFKSRVTLTVDTSISTAYMELSRLRSDDTAVYYCTRRDSNYDGGFDYWGQGTTVTVSS VL: DIVMTQTPLSLSVTPGQPASISCRASKSVSTSGFSYLHWYLQKPGQPPQLLIFLASNLESGVPDRFSGSGSGTDFTLKISRVEAEDVGVYYCQHSWELPLTFGQGTKLEIKR | – | 0.8 | 0.3 nM
